# Laboratory results taken from the supplement of paper PMC9170038.
# System: MS2 coat protein
# Test: apparent KD of MS2 coat protein; designed switch direction (-1 OFF switch, 1 ON switch): 1; higher = weaker reporter binding
# Outline: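 On Illumina chips, designed RNA switches with common flanks were made by stalled E. coli RNA polymerase. Titrations with SNAP-549-labelled MS2 coat protein, doubling from 0.7 or 1.5 nM to 3 µM, were done with no input, with 200 uM small-molecule ligand, or with an oligonucleotide input. Apparent KD is the median per design over clusters, from curve fits of normalised cluster fluorescence.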
# [1] = input ligand: microRNA oligo, concentration not stated
# [2] = Eterna round: R95, input ligand: FMN 200 uM
# [3] = Eterna round: R95, input ligand: microRNA oligo, concentration not stated
# [4] = Eterna round: R95, input ligand: none
Sequence,apparent KD of MS2 coat protein (input ligand: FMN 200 uM) [µM],apparent KD of MS2 coat protein [1] [µM],apparent KD of MS2 coat protein (input ligand: none) [µM],apparent KD of MS2 coat protein [2] [µM],apparent KD of MS2 coat protein [3] [µM],apparent KD of MS2 coat protein [4] [µM]
"ACUAGAAACGGGCAAUAACACAUGAGGAUCACCCAUGUGACACAGGAUAUAACCAGAUCAGAAAGUUAGAAGGGUGAGCCCGCA [Edraed] (Eterna round: R96, puzzle: Same State NG 3)",0.0132,0.0259,0.035,–,–,–
AGAGUGUAUCCACAGGAUAUGCGAGCUGACACAUGAGGAUCACCCAUGUAGUCCUAAAGGGCUGAGCAGAAGGGUGGUAAAGCUC [Raesvelave] (puzzle: Same State 2),–,–,–,0.0129,0.0442,0.0536
UAAGAACAUGAGGAUCACCCAUGUGGAAAGAACACAGGAUAUCAUGGAAGAACGAAACCAUGAGAAGGGUGACACG [Raatis] (puzzle: Same State 1),–,–,–,6.27,0.225,0.0243
"AUUUUCAAUGCAGGAUAUGAUUAACAUGAGGAUCACCCAUGUGGUGUUGUGAGUAAGGAGAGUGAUCAGAAGGGCAUUUUUUUU [JMF's solution 97] (Eterna round: R96, puzzle: Same State NG 2)",0.428,0.371,0.486,–,–,–
"AAUAUUAAUGCAGGAUAUGAUUAACAUGAGGAUCACCCAUGUGGUGUUGUGAGUAAGGAGAGUGAUCAGAAGGGCAUUUUUUUU [JMF's solution 36] (Eterna round: R96, puzzle: Same State NG 2)",0.648,0.349,0.529,–,–,–
"UGGUACAUGGGAGGAUAUCAUGUAGAAACAUGAGGAUCACCCAUGUAGGUGGCCGGUAACCGGAAUGAGAAGGCCCAUGUACCU [JL SSNG1 3.62] (Eterna round: R96, puzzle: Same State NG 2)",0.0486,0.0486,0.0611,–,–,–
CGCCGACAUGAGGAUCACCCAUGUGAGCGACUCACAGGAUAUACGCGAUAACAACUUCGCGUAGAAGGGUGCUCCU [Esvezaza] (puzzle: Same State 1),–,–,–,0.0144,0.0122,0.0144
AUAAGUUCGAUGCUCGUCUCUCCGUACAAACAUGAGGAUCACCCAUGUGAUUGGGCAAUAGCCCAAUCAGUAUGACC [Gemaa] (puzzle: Sensor for hsa-mir-208a),–,–,–,0.0381,0.026,0.0415
"UGGCUCAGACUAGGAUAUACGUGGUCACAUGAGGAUCACCCAUGUCUCGAGCUUCGGCUCGAGGCGUAGAAGGAGUCUGAGCCA [SSNG2/6-D2] (Eterna round: R96, puzzle: Same State NG 2)",0.145,0.199,0.184,–,–,–
"GAAAGCAUGGGAGGAUAUAGCCUCUAUGAAAGGCUAGAAGGCCCUGGCCACAUGAGGAUCACCCAUGUGAAAUAAAUAGAAGAA [Raarceza] (Eterna round: R96, puzzle: Same State NG 1)",0.0289,0.0969,0.218,–,–,–
"AAAGGAUGAUUAUACAUGAGGAUCACCCAUGUAAGUAAUACUAAGGAUAUGUGACUUAAUUGUUUACAGAAGGUAGGUUCAUGA [AK SSNG3-V2-1.1] (Eterna round: R96, puzzle: Same State NG 3)",0.0588,0.23,0.117,–,–,–
"AGCCGAGACUGAGGAUAUUUGUAUCUACAUGAGGAUCACCCAUGUAGCAACACGUGGUAGUGAUCGAAGAAGGCAGCUCGGCGC [MOD2 of Omei's SS(NG)2 Cv2] (Eterna round: R96, puzzle: Same State NG 2)",0.054,0.282,0.291,–,–,–
"CAGUACAUUCAAGGAUAUUCUCCAUGGAAAGUAGAAGAAGGUGAAACAUGAGGAUCACCCAUGUAGAAAGGAACAUUCGUACUG [Eternabot solution 34] (Eterna round: R96, puzzle: Same State NG 1)",0.181,0.147,0.31,–,–,–
"UUAAUUUGUUGAGGAUAUUAUGUCAAAAGAGAAGACAUGAGGAUCACCCAUGUGAGAAAAGGUUUUAAGAAGGCAACAUUCAUA [JR_SSNG2_Sub089] (Eterna round: R96, puzzle: Same State NG 2)",0.0395,0.0777,0.115,–,–,–
ACAGAGGGAAGACAGGAUAUUCGCGAUGGCACAUGAGGAUCACCCAUGUUUUGAGCACAUAAACAGAAGAAGGGUUAAAACUCAG [Veceanve] (puzzle: Same State 2),–,–,–,0.0214,0.132,0.215
"GAGUAGUUGAAAGGAUAUUGAUUAUUGUAGGAUCAAGAAGGUUCUAACAUGAGGAUCACCCAUGUAGGACUAUUCCUGUGUAUC [Parity 89 - Jieux - Same State NG 1] (Eterna round: R96, puzzle: Same State NG 1)",–,0.00863,–,–,–,–
AGUCCAGCCUGAGCUGGACAAAAGCAUGUACAUGAGGAUCACCCAUGUCAUGUACAAGCUUUUUGCUCGUCUUAAAU [Mat - hsa-mir-208a - Mod of JL - D22] (puzzle: Sensor for hsa-mir-208a),–,–,–,0.585,0.0164,0.584
"GUAGCAUACCGAGGAUAUUCAUAUUAUAACAUGAGGAUCACCCAUGUAGGCCGAUUACGGCCUUGGGAGAAGGCGGAAUGCUAC [Xeonanis - 20 Mod19] (Eterna round: R96, puzzle: Same State NG 2)",0.0279,0.229,0.342,–,–,–
"GCUCGACUGAUGGCCUACAUGAGGAUCACCCAUGUGAUUGGGCAGGAUAUCUAGAUGCAGGAUGUAGAGAAGGGCCGGUCGAGC [SameState NG3 #46] (Eterna round: R96, puzzle: Same State NG 3)",0.472,0.501,0.475,–,–,–
GAUUAACAUGAGGAUCACCCAUGUCGUUUUAUGGGAGGAUAUACGUGGACCGUAGUCCGCGUAGAAGGCCUAAUUG [JL-ss1-3.23 janelle mod] (puzzle: Same State 1),–,–,–,–,0.0973,–
"GUUAGGAAUCUAGCAAACAUGAGGAUCACCCAUGUUAGUGGGAAGGAUAUGGUACAGAAACUGUACCAGAAGGUCUUAUUAAUU [Omei SS(NG) 3 AV2] (Eterna round: R96, puzzle: Same State NG 3)",0.0583,0.0391,0.0557,–,–,–
CGUCCGGCCUGUGCUGGCCGGUGGCGUGUACAUGAGGAUCACCCAUGUUCUUGUGCUGGCUGUUUGCUCGUCUUGUG [salish99_mir208a_r3_025] (puzzle: Sensor for hsa-mir-208a),–,–,–,0.0448,0.023,0.0582
"GUGCUCGUGUAAGGAUAUGCUUCCGUUUCGGCUGCAGAAGGUACUAUAAUACAUGAGGAUCACCCAUGUCUCUUUUGUUUGGUG [salish99_SSNG1_r04_908] (Eterna round: R96, puzzle: Same State NG 1)",0.0861,0.0586,0.0765,–,–,–
